System: GST-YTHDF2 (human)
Test: EMSA
Settings: one N6-methyladenosine

m6A-RNA
Kd: 465 nM

— PMC3658177
